The values that follow come from article PMC2776356 (2009).

The chains are these.
B1: wild-type GST-Nkd1 [human] / in vitro translated ^35[S]-labelled Dvl2 [modified: 35S-methionine label; 35S-methionine label] [not stated (human or mouse cDNA cloned)] (parent complex)
chain 1: MGKLHSKPAAVCKRRESPEGDSFAVSAAWARKGIEEWIGRQRCPGGVSGPRQLRLAGTIGRSTRELVGDVLRDTLSEEEEDDFRLEVALPPEKTDGLGSGDEKKMERVSEPCPGSKKQLKFEELQCDVSMEEDSRQEWTFTLYDFDNNGKVTREDITSLLHTIYEVVDSSVNHSPTSSKMLRVKLTVAPDGSQSKRSVLVNQADLQSARPRAETKPTEDLRSWEKKQRAPLRFQGDSRLEQSGCYHHCVDENIERRNHYLDLAGIENYTSQFGPGSPSVAQKSELPPRTSNPTRSRSHEPEAIHIPHRKPQGVDPASFHFLDTPIAKVSELQQRLRGTQDGSKHFVRSPKAQGKSVGVGHVARGARNKPPLGPAIPAVSPSAHLAASPALLPSLAPLGHKKHKHRAKESQQGCRGLQAPLASGGPVLGREHLRELPALVVYESQAGQPVQRHEHHHHHEHHHHYHHFYQT
chain 2: MAGSSTGGGGVGETKVIYHLDEEETPYLVKIPVPAERITLGDFKSVLQRPAGAKYFFKSMDQDFGVVKEEISDDNARLPCFNGRVVSWLVSSDNPQPEMAPPVHEPRAELAPPAPPLPPLPPERTSGIGDSRPPSFHPNVSSSHENLEPETETESVVSLRRERPRRRDSSEHGAGGHRTGGPSRLERHLAGYESSSTLMTSELESTSLGDSDEEDTMSRFSSSTEQSSASRLLKRHRRRRKQRPPRLERTSSFSSVTDSTMSLNIITVTLNMEKYNFLGISIVGQSNERGDGGIYIGSIMKGGAVAADGRIEPGDMLLQVNDMNFENMSNDDAVRVLRDIVHKPGPIVLTVAKCWDPSPQAYFTLPRNEPIQPIDPAAWVSHSAALTGTFPAYPGSSSMSTITSGSSLPDGCEGRGLSVHTDMASVTKAMAAPESGLEVRDRMWLKITIPNAFLGSDVVDWLYHHVEGFPERREARKYASGLLKAGLIRHTVNKITFSEQCYYVFGDLSGGCESYLVNLSLNDNDGSSGASDQDTLAPLPGATPWPLLPTFSYQYPAPHPYSPQPPPYHELSSYTYGGGSASSQHSEGSRSSGSTRSDGGAGRTGRPEERAPESKSGSGSESEPSSRGGSLRRGGEASGTSDGGPPPSRGSTGGAPNLRAHPGLHPYGPPPGMALPYNPMMVVMMPPPPPPVPPAVQPPGAPPVRDLGSVPPELTASRQSFHMAMGNPSEFFVDVM
B2: wild-type GST-Nkd1 [human] / in vitro translated ^35[S]-labelled Dvl3 [modified: 35S-methionine label; 35S-methionine label] [human] (parent complex)
chain 1: B1 chain 1
chain 2: MGETKIIYHLDGQETPYLVKLPLPAERVTLADFKGVLQRPSYKFFFKSMDDDFGVVKEEISDDNAKLPCFNGRVVSWLVSAEGSHPDPAPFCADNPSELPPPMERTGGIGDSRPPSFHPHAGGGSQENLDNDTETDSLVSAQRERPRRRDGPEHATRLNGTAKGERRREPGGYDSSSTLMSSELETTSFFDSDEDDSTSRFSSSTEQSSASRLMRRHKRRRRKQKVSRIERSSSFSSITDSTMSLNIITVTLNMEKYNFLGISIVGQSNERGDGGIYIGSIMKGGAVAADGRIEPGDMLLQVNEINFENMSNDDAVRVLREIVHKPGPITLTVAKCWDPSPRGCFTLPRSEPIRPIDPAAWVSHTAAMTGTFPAYGMSPSLSTITSTSSSITSSIPDTERLDDFHLSIHSDMAAIVKAMASPESGLEVRDRMWLKITIPNAFIGSDVVDWLYHNVEGFTDRREARKYASNLLKAGFIRHTVNKITFSEQCYYIFGDLCGNMANLSLHDHDGSSGASDQDTLAPLPHPGAAPWPMAFPYQYPPPPHPYNPHPGFPELGYSYGGGSASSQHSEGSRSSGSNRSGSDRRKEKDPKAGDSKSGGSGSESDHTTRSSLRGPRERAPSERSGPAASEHSHRSHHSLASSLRSHHTHPSYGPPGVPPLYGPPMLMMPPPPAAMGPPGAPPGRDLASVPPELTASRQSFRMAMGNPSEFFVDVM
B3: wild-type GST-Nkd1 [human] / in vitro translated ^35[S]-labelled Dvl1 [modified: 35S-methionine label; 35S-methionine label] [human] (parent complex)
chain 1: B1 chain 1
chain 2: MAETKIIYHMDEEETPYLVKLPVAPERVTLADFKNVLSNRPVHAYKFFFKSMDQDFGVVKEEIFDDNAKLPCFNGRVVSWLVLAEGAHSDAGSQGTDSHTDLPPPLERTGGIGDSRPPSFHPNVASSRDGMDNETGTESMVSHRRERARRRNREEAARTNGHPRGDRRRDVGLPPDSASTALSSELESSSFVDSDEDGSTSRLSSSTEQSTSSRLIRKHKRRRRKQRLRQADRASSFSSITDSTMSLNIVTVTLNMERHHFLGISIVGQSNDRGDGGIYIGSIMKGGAVAADGRIEPGDMLLQVNDVNFENMSNDDAVRVLREIVSQTGPISLTVAKCWDPTPRSYFTVPRADPVRPIDPAAWLSHTAALTGALPRYGTSPCSSAVTRTSSSSLTSSVPGAPQLEEAPLTVKSDMSAVVRVMQLPDSGLEIRDRMWLKITIANAVIGADVVDWLYTHVEGFKERREARKYASSLLKHGFLRHTVNKITFSEQCYYVFGDLCSNLATLNLNSGSSGTSDQDTLAPLPHPAAPWPLGQGYPYQYPGPPPCFPPAYQDPGFSYGSGSTGSQQSEGSKSSGSTRSSRRAPGREKERRAAGAGGSGSESDHTAPSGVGSSWRERPAGQLSRGSSPRSQASATAPGLPPPHPTTKAYTVVGGPPGGPPVRELAAVPPELTGSRQSFQKAMGNPCEFFVDIM

In the first test the parent is B1. The test can be described thus: GST-pulldown; parent: 1; read off a plot.
For chain 1 R288H, the ratio to parent is roughly 0.14.

Variants of B1 are the subject of the next test. The test can be described thus: yeast two-hybrid (quantitative ONPG assay); parent: 4.7; read off a plot.
chain 1 R288H: the response is roughly 2.5 ONPG units.

Variants of B2 are the subject of another test. The test can be described thus: GST-pulldown; parent: 1; read off a plot.
chain 1 R288H: the ratio to parent is roughly 0.7.

Variants of B2 are the subject of the next test. The test is described as follows: yeast two-hybrid (quantitative ONPG assay); parent: 4; read off a plot.
For chain 1 R288H, the response was roughly 3 ONPG units.

Variants of B3 are the subject of the next test. The test is described as follows: GST-pulldown; parent: 1; read off a plot.
Consider chain 1 R288H, for which the ratio to parent is roughly 0.19.

The variants in a further test derive from B3. The test can be described thus: yeast two-hybrid (quantitative ONPG assay); parent: 6.2; read off a plot.
Regarding chain 1 R288H, the response is roughly 2.4 ONPG units.
